From the Immune Epitope Database (IEDB) come the findings set out here.

Experiment [1] addresses HLA-B*08:01. As to the kind of experiment: IEDB peptide-MHC binding, purified MHC/competitive/radioactivity; filed as Kd, often an IC50 or EC50 that approximates it; ≥ and ≤ were set here for values at or beyond the usual limits of such assays.
The target of experiment [2] is HLA-B*08:01. As to the kind of experiment: IEDB peptide-MHC binding, purified MHC/direct/fluorescence; filed as Kd, often an IC50 or EC50 that approximates it; ≥ and ≤ were set here for values at or beyond the usual limits of such assays.
Experiment [3] has as its target HLA-B*15:01. The experiment is described as above.
Experiment [4] deals with HLA-A*26:01. Described as above.
Experiment [5] addresses HLA-A*31:01. Described as above.
Experiment [6] addresses HLA-A*03:01. The description is as above.
Experiment [7] has as its target HLA-B*44:02. The description is as above.
The target in experiment [8] is HLA-B*40:01. The description is as above.
The target of experiment [9] is HLA-B*27:05. The experiment is described as above.
In experiment [10] the target is HLA-A*01:01. The experiment is described as above.
In experiment [11] the target is HLA-A*69:01. The experiment is described as above.
Experiment [12] addresses HLA-B*58:01. Described as above.
Experiment [13] deals with HLA-B*07:02. Described as above.
In experiment [14] the target is HLA-A*02:01. Described as above.
Experiment [15] deals with HLA-A*11:01. The experiment is described as above.
Experiment [16] deals with HLA-A*02:01. Nature of the experiment: IEDB peptide-MHC binding, purified MHC/competitive/fluorescence; ≥ and ≤ were set here for values at or beyond the usual limits of such assays.
Experiment [17] has as its target HLA-A*11:01. Described as above.
Experiment [18] concerns the target HLA-B*57:01. As to the kind of experiment: IEDB peptide-MHC binding, purified MHC/competitive/radioactivity; filed as Kd, often an IC50 or EC50 that approximates it; ≥ and ≤ were set here for values at or beyond the usual limits of such assays.
Experiment [19] addresses HLA-B*18:01. Nature of the experiment: IEDB peptide-MHC binding, purified MHC/direct/fluorescence; filed as Kd, often an IC50 or EC50 that approximates it; ≥ and ≤ were set here for values at or beyond the usual limits of such assays. To be noted: source organism: dengue virus type 1.
Experiment [20] concerns the target HLA-A*24:02. As to the kind of experiment: IEDB peptide-MHC binding, purified MHC/competitive/fluorescence; ≥ and ≤ were set here for values at or beyond the usual limits of such assays.
In experiment [21] the target is HLA-A*24:03. As to the kind of experiment: IEDB peptide-MHC binding, purified MHC/direct/fluorescence; filed as Kd, often an IC50 or EC50 that approximates it; ≥ and ≤ were set here for values at or beyond the usual limits of such assays.
The target in experiment [22] is HLA-A*32:01. Nature of the experiment: IEDB peptide-MHC binding, purified MHC/competitive/radioactivity; filed as Kd, often an IC50 or EC50 that approximates it; ≥ and ≤ were set here for values at or beyond the usual limits of such assays. The conditions noted are these: source organism: Vaccinia virus WR.
The target in experiment [23] is HLA-A*02:03. Described as above. To be noted: source organism: Dengue virus 1 Brazil/97-11/1997.
For experiment [24], the target named is HLA-A*03:01. As to the kind of experiment: IEDB peptide-MHC binding, purified MHC/competitive/fluorescence; filed as Kd, often an IC50 or EC50 that approximates it; ≥ and ≤ were set here for values at or beyond the usual limits of such assays.
In experiment [25] the target is HLA-B*39:01. Described as above. To be noted: source organism: Yersinia bercovieri ATCC 43970.
The target of experiment [26] is HLA-B*15:01. The experiment is described as above. The conditions noted are these: source organism: Yersinia bercovieri ATCC 43970.
Experiment [27] deals with HLA-A*02:01. Described as above. To be noted: source organism: Yersinia bercovieri ATCC 43970.
Where [28] appears, read: source organism: Dengue virus 4 Philippines/H241/1956.
Where [29] appears, read: source organism: Vaccinia virus WR.
Setting [30] is: source organism: Shigella flexneri.
The mark [31] stands for this setting: source organism: Zaire ebolavirus.
Where [32] appears, read: source organism: Vaccinia virus Copenhagen.
Where [33] appears, read: source organism: Vaccinia virus.
Setting [34] is: source organism: Dengue virus 1 Brazil/97-11/1997.
Setting [35] is: source organism: Toxoplasma gondii.
The mark [36] stands for this setting: source organism: Campylobacter jejuni RM1221.
Setting [37] is: source organism: Vibrio parahaemolyticus.
The mark [38] stands for this setting: source organism: Dengue virus 3 Martinique/1243/1999.
[39] abbreviates: source organism: Giardia lamblia ATCC 50803.
The mark [40] stands for this setting: source organism: Sudan ebolavirus.

Take MKMKKKTWL: the Kd in [1] (setting [28]) came out at 0.0629 µM.

FFKFSFMYI: in experiment [1] (setting [29]), the Kd is 0.84 µM.

As for VVISKKDTY, the Kd in experiment [2] (setting [30]) is not below 20 µM; in experiment [3] (setting [30]) it was not below 20 µM; in experiment [4] (setting [30]), 6.93 µM; in experiment [5] (setting [30]) it was 5.5 µM; in experiment [6] (setting [30]), not below 20 µM; in [7] (setting [30]), not below 20 µM. Besides, the Kd in experiment [8] (setting [30]), in experiment [9] (setting [30]), in experiment [10] (setting [30]), in experiment [11] (setting [30]), in experiment [12] (setting [30]) and in experiment [13] (setting [30]) was not below 20 µM throughout. The Kd is not below 20 µM in experiment [14] (setting [30]) and 2.96 µM in experiment [15] (setting [30]).

As for SETAGNNNT, the IC50 was not below 98.4 µM in experiment [16] (setting [31]) and not below 363 µM in experiment [17] (setting [31]).

Regarding WCRLKFHIV, the Kd in [1] (setting [32]) was 0.0819 µM.

Regarding ALMRRIAVV, the Kd in experiment [1] (setting [29]) worked out at 1.35 µM.

The sequence NNIGIEYSK yielded an IC50 in [17] (setting [33]) not below 173 µM.

On to GTSITQKGII, for which the Kd in [18] (setting [34]) was 9.33 µM.

Take SEHTGREIV: the Kd was not below 20 µM in experiment [7] (source organism: dengue virus type 1) and 2.04 µM in [19].

Regarding VMLIGIEIL, the half-maximal inhibitory concentration (IC50) worked out at 37.6 µM in experiment [20] (setting [29]) and 0.161 µM in [16] (setting [29]).

In the case of AYMDRKSFK, the Kd in experiment [2] (setting [35]) is not below 20 µM; in experiment [3] (setting [35]), not below 20 µM; in experiment [4] (setting [35]), not below 20 µM; in experiment [6] (setting [35]), 14.7 µM; in experiment [7] (setting [35]) it was not below 20 µM; in [21] (setting [35]), 2.43 µM. Besides, the Kd in [8] (setting [35]), in [9] (setting [35]), in [10] (setting [35]), in [11] (setting [35]), in [12] (setting [35]) and in experiment [13] (setting [35]) was not below 20 µM in each case. In addition, the Kd in [14] (setting [35]) was not below 20 µM; in experiment [15] (setting [35]), not below 5 µM.

With GSRAIWYMW, the Kd in experiment [18] (setting [28]) turned out to be 0.00172 µM.

Regarding IYDYLRLLY, the Kd in [2] (source organism: Clostridium botulinum NCTC 2916), in experiment [3] (setting [36]), in [5] (setting [36]), in experiment [6] (setting [36]), in experiment [7] (setting [36]) and in experiment [8] (setting [36]) was not below 20 µM in each case. The Kd in [9] (setting [36]) is not below 20 µM; in experiment [10] (setting [36]), 5.13 µM; in experiment [11] (setting [36]) it was not below 20 µM; in [12] (setting [36]) it was not below 20 µM; in [13] (setting [36]), not below 20 µM; in [14] (setting [36]), not below 20 µM.

As for LNLSKFMMV, the Kd in experiment [1] (setting [29]) was 0.102 µM.

As to RSMYRIPPF, the Kd turned out to be 0.157 µM in [1] (setting [29]) and 0.000726 µM in experiment [22].

Consider EYRFLVINR, for which the IC50 in experiment [20] (setting [29]) was 57.6 µM; in experiment [17] (setting [29]), not below 490 µM.

With WTSGASTSQE, the Kd in [18] (setting [34]) turned out to be 0.206 µM.

On to EEDLPVTWR, for which the Kd in [2] (setting [37]), in [3] (setting [37]), in experiment [4] (setting [37]), in experiment [5] (setting [37]), in [6] (setting [37]) and in experiment [7] (setting [37]) was not below 20 µM each time. The Kd in experiment [8] (setting [37]), in experiment [9] (setting [37]), in experiment [10] (setting [37]), in [11] (setting [37]), in experiment [12] (setting [37]) and in experiment [13] (setting [37]) was not below 20 µM each time. Further, the Kd in experiment [14] (setting [37]) and in experiment [15] (setting [37]) was not below 20 µM each time.

For VLRTKITSL, in [1] (setting [29]), the Kd amounted to 0.00092 µM.

On to ATRLENIMW, for which, in experiment [18] (setting [34]), the Kd stood at 0.00231 µM.

For the sequence GLNSRSTSL, the figures for the Kd in experiment [23] and in experiment [1] (setting [34]) were 0.0164 µM and 0.0147 µM, respectively.

Consider VVLDLFARK, for which, in [24] (source organism: Shigella flexneri 2a str. 301), the Kd is 0.175 µM.

In [17] (setting [29]), VPFIRNPNK yielded a half-maximal inhibitory concentration (IC50) of 47.2 µM.

For DYRFRFRSV, the equilibrium dissociation constant (Kd) in experiment [1] (setting [29]) came to 0.683 µM.

Turning to WQMFMKVTV, the results for the Kd in experiment [25], in experiment [26] and in [27] were 0.389 µM, 1.29 µM and 0.0156 µM, respectively.

For the sequence RASFIEVKTC, the Kd in experiment [18] (setting [34]) turned out to be 0.0537 µM.

For the sequence WFSRENSYSG, the Kd in [18] (setting [38]) turned out to be 7 µM.

With IILFQRTFS, the IC50 in experiment [20] (setting [31]) was not below 294 µM; in [16] (setting [31]), not below 81.4 µM.

RTDPVIDNI: the Kd in experiment [2] (setting [39]), in experiment [3] (setting [39]), in experiment [4] (setting [39]), in experiment [5] (setting [39]), in experiment [6] (setting [39]) and in experiment [7] (setting [39]) was not below 20 µM each time. The Kd in experiment [21] (setting [39]) was 2.75 µM; in experiment [8] (setting [39]), not below 20 µM; in experiment [9] (setting [39]), not below 20 µM; in experiment [11] (setting [39]), not below 20 µM; in experiment [13] (setting [39]), not below 20 µM; in experiment [14] (setting [39]) it was not below 20 µM. This sequence gave a Kd in experiment [15] (setting [39]) not below 20 µM.

In the case of SFQQTNAMV, the concentration for half-maximal inhibition (IC50) in experiment [20] (setting [31]) was 18.1 µM; in [16] (setting [31]), 31.7 µM.

Turning to SILSSFFSL, the equilibrium dissociation constant (Kd) in experiment [1] (setting [29]) turned out to be 0.229 µM.

With NFAEGVIAF, in [20] (setting [40]), the IC50 came out at 4.18 µM.

VMAVGLVSIL: in experiment [1] (setting [38]), the Kd was 0.154 µM.

Sequence SNTTGKLIW came in with an IC50 in [20] (setting [31]) of 9.97 µM.

The sequence CPGDYAFHK showed an IC50 in experiment [17] (setting [40]) of 55.3 µM. This lies in the double-digit micromolar range.

For MLILNFCKL, the Kd in experiment [1] (setting [32]) came to 0.00391 µM.

In experiment [20] (setting [31]), DNTQSEHSF had an IC50 of 49.7 µM.

Regarding KDVSYNDYF, in experiment [20] (setting [33]), the half-maximal inhibitory concentration (IC50) worked out at 41.4 µM.

In turn, VLKPSVIEE returned an IC50 in [17] (setting [29]) not below 257 µM.

In experiment [20] (setting [31]), ICGLRQLAN returned an IC50 of 16.2 µM.

Regarding HRRLRNKRL, the Kd in experiment [1] (setting [29]) worked out at 0.0284 µM.

Turning to NFMQRIISL, in experiment [1] (setting [29]), the Kd turned out to be 1.49 µM.

As for KMRPMFAVGL, the Kd in [1] (setting [34]) came to 4.58 µM.

Sequence MTIASVPTSR returned a Kd in experiment [24] (source organism: Influenza A virus (A/equine/California/8560/2002(H3N8))) of 1.01 µM.

DAVLYYHMM: in [20] (setting [31]), the IC50 was determined as 3.14 µM.

Sequence RWGGTCRIL registered an IC50 in [20] (setting [40]) of 0.23 µM. This counts as sub-micromolar.

On to KTSLCLMMIL, for which, in experiment [18] (source organism: Dengue virus 3 Sri Lanka/1266/2000), the Kd turned out to be 0.00968 µM.

What is called Kd is the concentration at which binding is half-saturated. A word on the IC50: it is the concentration needed to halve the response being measured. Lower therefore signals inhibition by little substance.
